T1: human TREM2 (human, UniProt Q9NZC2 19-174, limits assumed)
T1 construct: also called triggering receptor expressed on myeloid cells 2
T1 sequence: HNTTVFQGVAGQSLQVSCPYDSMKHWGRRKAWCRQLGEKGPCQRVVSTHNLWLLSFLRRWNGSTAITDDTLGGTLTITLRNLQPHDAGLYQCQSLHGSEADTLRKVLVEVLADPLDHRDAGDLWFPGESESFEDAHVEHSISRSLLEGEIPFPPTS


Experiments:
[1] = molecular target: T1, human TREM2; assay: 2nd screen, 100 nM
[2] = molecular target: T1, human TREM2; assay: 1st screen, 110 nM Ab

Binder	Binding Signal [1]	Binding Signal [2]
V6 (antibody, V domains shown, also called 6E7 variant V6) VH: EVQLVQSGAEVKKPGESLKISCKGSGYSFTSMWIAWVRQMPGKGLEWMGIIYPGDSDTRYSPSFQGQVTISADKSISTAYLQWSSLKASDTAMYFCARQRTFYYDSSDYFDYWGQGTLVTVSS VL: DIQMTQSPSSVSASVGDRVTITCRASQGISSWLAWYQQKPGKAPKLLIYAASSLQNGVPSRFSGSGSGTDFTLTISSLQPEDFATYFCQQADSFPRTFGQGTKLEIK	0.56 fold over 6E7 parental antibody	0.2 fold over 6E7 parental antibody
V7 (antibody, V domains shown, also called 6E7 variant V7) VH: EVQLVQSGAEVKKPGESLKISCKGSGYSFTSEWIAWVRQMPGKGLEWMGIIYPGDSDTRYSPSFQGQVTISADKSISTAYLQWSSLKASDTAMYFCARQRTFYYDSSDYFDYWGQGTLVTVSS VL: DIQMTQSPSSVSASVGDRVTITCRASQGISSWLAWYQQKPGKAPKLLIYAASSLQNGVPSRFSGSGSGTDFTLTISSLQPEDFATYFCQQADSFPRTFGQGTKLEIK	0.32 fold over 6E7 parental antibody	0.11 fold over 6E7 parental antibody
V8 (antibody, V domains shown, also called 6E7 variant V8) VH: EVQLVQSGAEVKKPGESLKISCKGSGYSFTSYWIAWVRQMPGKGLEWMGIIYPGDSDTKYSPSFQGQVTISADKSISTAYLQWSSLKASDTAMYFCARQRTFYYDSSDYFDYWGQGTLVTVSS VL: DIQMTQSPSSVSASVGDRVTITCRASQGISSWLAWYQQKPGKAPKLLIYAASSLQNGVPSRFSGSGSGTDFTLTISSLQPEDFATYFCQQADSFPRTFGQGTKLEIK	0.77 fold over 6E7 parental antibody	0.28 fold over 6E7 parental antibody
V9 (antibody, V domains shown, also called 6E7 variant V9; LV-16/HV-201) VH: EVQLVQSGAEVKKPGESLKISCKGSGYSFTSYWIAWVRQMPGKGLEWMGIIYPGDSDTRYSPSFQGQVTISADKSISTAYLQWSSLKASDTAMYFCARQRGFYYDSSDYFDYWGQGTLVTVSS VL: DIQMTQSPSSVSASVGDRVTITCRASQGISSWLAWYQQKPGKAPKLLIYAASSLQNGVPSRFSGSGSGTDFTLTISSLQPEDFATYFCQQADSFPRTFGQGTKLEIK	0.54 fold over 6E7 parental antibody	0.67 fold over 6E7 parental antibody
V10 (antibody, V domains shown, also called 6E7 variant V10; LV-201/HV-15) VH: EVQLVQSGAEVKKPGESLKISCKGSGYSFTSYWIAWVRQMPGKGLEWMGIIYPGDSDTRYSPSFQGQVTISADKSISTAYLQWSSLKASDTAMYFCARQRTFYYDSSDYFDYWGQGTLVTVSS VL: DIQMTQSPSSVSASVGDRVTITCRASQGISSWLAWYQQKPGKAPKLLIYSASSLQNGVPSRFSGSGSGTDFTLTISSLQPEDFATYFCQQADSFPRTFGQGTKLEIK	0.7 fold over 6E7 parental antibody	0.76 fold over 6E7 parental antibody
V11 (antibody, V domains shown, also called 6E7 variant V11) VH: EVQLVQSGAEVKKPGESLKISCKGSGYSFTSYWIAWVRQMPGKGLEWMGIIYPGDSDTRYSPSFQGQVTISADKSISTAYLQWSSLKASDTAMYFCARQRTFYYDSSDYFDYWGQGTLVTVSS VL: DIQMTQSPSSVSASVGDRVTITCRASQGISSWLAWYQQKPGKAPKLLIYAASSLQNGVPSRFSGSGSGTDFTLTISSLQPEDFATYFCQQAASFPRTFGQGTKLEIK	0.42 fold over 6E7 parental antibody	0.79 fold over 6E7 parental antibody
V18 (antibody, V domains shown, also called 6E7 variant V18) VH: EVQLVQSGAEVKKPGESLKISCKGSGYSFTSYHIAWVRQMPGKGLEWMGIIYPGDSDTRYSPSFQGQVTISADKSISTAYLQWSSLKASDTAMYFCARQRTFYYDSSDYFDYWGQGTLVTVSS VL: DIQMTQSPSSVSASVGDRVTITCRASQGISSWLAWYQQKPGKAPKLLIYAASSLQNGVPSRFSGSGSGTDFTLTISSLQPEDFATYFCQQADSFPRTFGQGTKLEIK	0.42 fold over 6E7 parental antibody	0.17 fold over 6E7 parental antibody
V19 (antibody, V domains shown, also called 6E7 variant V19) VH: EVQLVQSGAEVKKPGESLKISCKGSGYSFTSSWIAWVRQMPGKGLEWMGIIYPGDSDTRYSPSFQGQVTISADKSISTAYLQWSSLKASDTAMYFCARQRTFYYDSSDYFDYWGQGTLVTVSS VL: DIQMTQSPSSVSASVGDRVTITCRASQGISSWLAWYQQKPGKAPKLLIYAASSLQNGVPSRFSGSGSGTDFTLTISSLQPEDFATYFCQQADSFPRTFGQGTKLEIK	0.48 fold over 6E7 parental antibody	0.59 fold over 6E7 parental antibody
V20 (antibody, V domains shown, also called 6E7 variant V20) VH: EVQLVQSGAEVKKPGESLKISCKGSGYSFTSYWIAWVRQMPGKGLEWMGRIYPGDSDTRYSPSFQGQVTISADKSISTAYLQWSSLKASDTAMYFCARQRTFYYDSSDYFDYWGQGTLVTVSS VL: DIQMTQSPSSVSASVGDRVTITCRASQGISSWLAWYQQKPGKAPKLLIYAASSLQNGVPSRFSGSGSGTDFTLTISSLQPEDFATYFCQQADSFPRTFGQGTKLEIK	0.52 fold over 6E7 parental antibody	0.18 fold over 6E7 parental antibody
V21 (antibody, V domains shown, also called 6E7 variant V21) VH: EVQLVQSGAEVKKPGESLKISCKGSGYSFTSYWIAWVRQMPGKGLEWMGIIYPGDSDTRYSPSFQGQVTISADKSISTAYLQWSSLKASDTAMYFCARQRTFYYDSSDFFDYWGQGTLVTVSS VL: DIQMTQSPSSVSASVGDRVTITCRASQGISSWLAWYQQKPGKAPKLLIYAASSLQNGVPSRFSGSGSGTDFTLTISSLQPEDFATYFCQQADSFPRTFGQGTKLEIK	0.68 fold over 6E7 parental antibody	0.76 fold over 6E7 parental antibody
V22 (antibody, V domains shown, also called 6E7 variant V22) VH: EVQLVQSGAEVKKPGESLKISCKGSGYSFTSYWIAWVRQMPGKGLEWMGIIYPGDSDTRYSPSFQGQVTISADKSISTAYLQWSSLKASDTAMYFCARQRTFYYDSSDYFDYWGQGTLVTVSS VL: DIQMTQSPSSVSASVGDRVTITCRASQGISSWLAWYQQKPGKAPKLLIYRASSLQNGVPSRFSGSGSGTDFTLTISSLQPEDFATYFCQQADSFPRTFGQGTKLEIK	0.71 fold over 6E7 parental antibody	0.3 fold over 6E7 parental antibody
V23 (antibody, V domains shown, also called 6E7 variant V23; LV-202/HV-15) VH: EVQLVQSGAEVKKPGESLKISCKGSGYSFTSYWIAWVRQMPGKGLEWMGIIYPGDSDTRYSPSFQGQVTISADKSISTAYLQWSSLKASDTAMYFCARQRTFYYDSSDYFDYWGQGTLVTVSS VL: DIQMTQSPSSVSASVGDRVTITCRASQGISSWLAWYQQKPGKAPKLLIYAASSLQNGVPSRFSGSGSGTDFTLTISSLQPEDFATYFCQQADSFPLTFGQGTKLEIK	0.4 fold over 6E7 parental antibody	0.4 fold over 6E7 parental antibody
V30 (antibody, V domains shown, also called 6E7 variant V30; LV-16/HV-202) VH: EVQLVQSGAEVKKPGESLKISCKGSGSSFTSYWIAWVRQMPGKGLEWMGIIYPGDSDTRYSPSFQGQVTISADKSISTAYLQWSSLKASDTAMYFCARQRTFYYDSSDYFDYWGQGTLVTVSS VL: DIQMTQSPSSVSASVGDRVTITCRASQGISSWLAWYQQKPGKAPKLLIYAASSLQNGVPSRFSGSGSGTDFTLTISSLQPEDFATYFCQQADSFPRTFGQGTKLEIK	0.72 fold over 6E7 parental antibody	0.79 fold over 6E7 parental antibody
V31 (antibody, V domains shown, also called 6E7 variant V31) VH: EVQLVQSGAEVKKPGESLKISCKGSGYSFTSYWIAWVRQMPGKGLEWMGIIYPGDSETRYSPSFQGQVTISADKSISTAYLQWSSLKASDTAMYFCARQRTFYYDSSDYFDYWGQGTLVTVSS VL: DIQMTQSPSSVSASVGDRVTITCRASQGISSWLAWYQQKPGKAPKLLIYAASSLQNGVPSRFSGSGSGTDFTLTISSLQPEDFATYFCQQADSFPRTFGQGTKLEIK	0.73 fold over 6E7 parental antibody	0.61 fold over 6E7 parental antibody
V32 (antibody, V domains shown, also called 6E7 variant V32) VH: EVQLVQSGAEVKKPGESLKISCKGSGYSFTSYWIAWVRQMPGKGLEWMGIIYPGDSDTRYSNSFQGQVTISADKSISTAYLQWSSLKASDTAMYFCARQRTFYYDSSDYFDYWGQGTLVTVSS VL: DIQMTQSPSSVSASVGDRVTITCRASQGISSWLAWYQQKPGKAPKLLIYAASSLQNGVPSRFSGSGSGTDFTLTISSLQPEDFATYFCQQADSFPRTFGQGTKLEIK	0.89 fold over 6E7 parental antibody	0.82 fold over 6E7 parental antibody
V33 (antibody, V domains shown, also called 6E7 variant V33; LV-16/HV-203) VH: EVQLVQSGAEVKKPGESLKISCKGSGYSFTSYWIAWVRQMPGKGLEWMGIIYPGDSDTRYSPSFQGQVTISADKSISTAYLQWSSLKASDTAMYFCARQRTFYGDSSDYFDYWGQGTLVTVSS VL: DIQMTQSPSSVSASVGDRVTITCRASQGISSWLAWYQQKPGKAPKLLIYAASSLQNGVPSRFSGSGSGTDFTLTISSLQPEDFATYFCQQADSFPRTFGQGTKLEIK	0.34 fold over 6E7 parental antibody	0.23 fold over 6E7 parental antibody
V34 (antibody, V domains shown, also called 6E7 variant V34) VH: EVQLVQSGAEVKKPGESLKISCKGSGYSFTSYWIAWVRQMPGKGLEWMGIIYPGDSDTRYSPSFQGQVTISADKSISTAYLQWSSLKASDTAMYFCARQRTFYYDSSDYFDYWGQGTLVTVSS VL: DIQMTQSPSSVSASVGDRVTITCRASQGISSWLAWYQQKPGKAPKLLIYAASSLQDGVPSRFSGSGSGTDFTLTISSLQPEDFATYFCQQADSFPRTFGQGTKLEIK	1.02 fold over 6E7 parental antibody	0.34 fold over 6E7 parental antibody
V35 (antibody, V domains shown, also called 6E7 variant V35) VH: EVQLVQSGAEVKKPGESLKISCKGSGYSFTSYWIAWVRQMPGKGLEWMGIIYPGDSDTRYSPSFQGQVTISADKSISTAYLQWSSLKASDTAMYFCARQRTFYYDSSDYFDYWGQGTLVTVSS VL: DIQMTQSPSSVSASVGDRVTITCRASQGISSWLAWYQQKPGKAPKLLIYAASSLQNGVPSRFSGSGSGTDFTLTISSLQPEDFATYFCQQAYSFPRTFGQGTKLEIK	0.29 fold over 6E7 parental antibody	0.21 fold over 6E7 parental antibody
V42 (antibody, V domains shown, also called 6E7 variant V42) VH: EVQLVQSGAEVKKPGESLKISCKGSGYSFTSAWIAWVRQMPGKGLEWMGIIYPGDSDTRYSPSFQGQVTISADKSISTAYLQWSSLKASDTAMYFCARQRTFYYDSSDYFDYWGQGTLVTVSS VL: DIQMTQSPSSVSASVGDRVTITCRASQGISSWLAWYQQKPGKAPKLLIYAASSLQNGVPSRFSGSGSGTDFTLTISSLQPEDFATYFCQQADSFPRTFGQGTKLEIK	0.41 fold over 6E7 parental antibody	0.45 fold over 6E7 parental antibody
V43 (antibody, V domains shown, also called 6E7 variant V43) VH: EVQLVQSGAEVKKPGESLKISCKGSGYSFTSYWIAWVRQMPGKGLEWMGIIYPGDSGTRYSPSFQGQVTISADKSISTAYLQWSSLKASDTAMYFCARQRTFYYDSSDYFDYWGQGTLVTVSS VL: DIQMTQSPSSVSASVGDRVTITCRASQGISSWLAWYQQKPGKAPKLLIYAASSLQNGVPSRFSGSGSGTDFTLTISSLQPEDFATYFCQQADSFPRTFGQGTKLEIK	0.33 fold over 6E7 parental antibody	0.2 fold over 6E7 parental antibody

— US20250326839A1 (VIGIL NEUROSCIENCE, published 2025)
